Publication PMC6751209

Biological target: 53BP1 (UniProt Q12888)
Assay: FLAG-53BP1 IP, Myc-PP4R3β immunoblot
Conditions: reference: wild type, mitotic cells; sites S840

## PP4R3β (from UniProt Q5MIZ7) S840A, mitotic cells
  binding against the reference: weaker
